According to article PMC4137706 (Molecular Biology and Evolution, 2014):

B1: Full-length human Homer 1, N-terminally hexahistidine-tagged (His-HsHomer 1) (natural protein)
chain: MGEQPIFSTRAHVFQIDPNTKKNWVPTSKHAVTVSYFYDSTRNVYRIISLDGSKAIINSTITPNMTFTKTSQKFGQWADSRANTVYGLGFSSEHHLSKFAEKFQEFKEAARLAKEKSQEKMELTSTPSQESAGGDLQSPLTPESINGTDDERTPDVTQNSEPRAEPTQNALPFSHSSAISKHWEAELATLKGNNAKLTAALLESTANVKQWKQQLAAYQEEAERLHKRVTELECVSSQANAVHTHKTELNQTIQELEETLKLKEEEIERLKQEIDNARELQEQRDSLTQKLQEVEIRNKDLEGQLSDLEQRLEKSQNEQEAFRNNLKTLLEILDGKIFELTELRDNLAKLLECS

Columns and labels:
[1] = target: Full-length S. rosetta Flotillin 1 N-terminally tagged with GST (GST-SrFlotillin 1) (S. rosetta); test: […]
[2] = target: T1, Full-length human Flotillin 1 N-terminally tagged with GST (GST-HsFlotillin 1) (human, UniProt O75955 1-427); test: pull-down
T1 sequence: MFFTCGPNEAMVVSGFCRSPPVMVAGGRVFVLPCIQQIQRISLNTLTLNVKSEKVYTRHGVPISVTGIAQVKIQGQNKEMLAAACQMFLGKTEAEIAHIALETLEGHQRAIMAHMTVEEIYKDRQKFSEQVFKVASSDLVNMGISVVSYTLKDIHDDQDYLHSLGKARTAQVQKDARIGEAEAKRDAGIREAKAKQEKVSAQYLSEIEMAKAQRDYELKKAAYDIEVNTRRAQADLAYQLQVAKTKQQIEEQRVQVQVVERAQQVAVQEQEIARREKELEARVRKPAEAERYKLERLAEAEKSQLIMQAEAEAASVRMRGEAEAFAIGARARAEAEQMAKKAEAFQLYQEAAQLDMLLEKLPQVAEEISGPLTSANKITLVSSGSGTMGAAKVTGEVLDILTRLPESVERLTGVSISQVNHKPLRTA

| Molecule | Kd [1] [nM] | Kd [2] [nM] |
| --- | --- | --- |
| Full-length Salpingoeca rosetta Homer, N-terminally hexahistidine-tagged (His-SrHomer) (natural protein) | 960 |  |
| B1 |  | ~830 |
